Data taken from US9345765B2, “Diagnostic and therapeutic uses of moesin fragments” (SHANGHAI KEXIN BIOTECH CO., LTD., priority 2010, dated 2016).

B1: N-terminal FERM domain of moesin: N-terminal FERM domain of human moesin, amino acid residues 1-297 (SEQ ID NO:2), expressed in E. coli BL21(DE3) (protein)
chain: MPKTISVRVTTMDAELEFAIQPNTTGKQLFDQVVKTIGLREVWFFGLQYQDTKGFSTWLKLNKKVTAQDVRKESPLLFKFRAKFYPEDVSEELIQDITQRLFFLQVKEGILNDDIYCPPETAVLLASYAVQSKYGDFNKEVHKSGYLAGDKLLPQRVLEQHKLNKDQWEERIQVWHEEHRGMLREDAVLEYLKIAQDLEMYGVNYFSIKNKKGSELWLGVDALGLNIYEQNDRLTPKIGFPWSEIRNISFNDKKFVIKPIDKKAPDFVFYAPRLRINKRILALCMGNHELYMRRRKP
modifications: N-terminal FERM domain of human moesin protein

Columns and labels:
Assay type in all cases: cell-based, human
platelets [1] = assay: Platelet aggregation assay (Born method, transparency)
Procedure: Plasma samples were collected from 6 healthy individuals and mixed with 3.8% sodium citrate in the ratio of 9:1 (v/v) to prevent solidification of the plasma. The mixed plasma samples were then centrifuged to obtain a portion of platelet-rich plasma (“PRP”) and another portion of platelet-poor plasma (“PPP”). The PRP was diluted with PPP to obtain a plasma sample having a platelet count of 5×10^8 per milliliter as a testing plasma sample for later use.
The testing plasma sample was incubated in the presence of an inhibitor of platelet activation as described in Table 3 below for several minutes, and thereafter an activator of platelet activation as described in Table 3 below was added therein and the plasma sample was further incubated for another several minutes to obtain a final mixture. The final mixture was detected for blood aggregation by measuring the transparency of the sample using TYXN-91 Intelligent Blood Agglutometer according to the Born methods. The transparency of PRP in the presence of either ADP or antibody against the N-terminal domain of moesin was also detected as positive controls. A negative control containing no inhibitor was also tested.
The testing results which was shown as platelet aggregation rate (“PAR”) and platelet aggregation inhibition rate (“PAIR”) are listed in Table 3 below.
PAR is calculated by, 1) subtracting PPP's transparency with the testing group's transparency, and 2) dividing the result of step 1) by PPP's transparency and then multiplying 100%. PAIR is calculated by, 1) subtracting the PRP group's PAR with the testing group's PAR, and 2) dividing the result of step 1) by the PRP group's PAR and then multiplying 100%.
The RGDS was prepared according to a conventional peptide synthesis in solid phase and used herein with a concentration of 10 ug/ml in 0.01M PBS. The moesin fragments and anti-moesin antibodies used in this experiment were prepared according to Example 1. The concentration regarding an inhibitor as described in Table 3 below is a final concentration of the inhibitor in the testing plasma sample, and the concentration regarding the activator of ADP and the antibody against N-terminal FERM domain of moesin also refers to a final concentration in the testing plasma sample.

platelets [2] = assay: Stimulation of platelet activation: CD62P and CD63 expression in plasma by flow cytometry; conditions: for CD62P FD (Mnx) / CD63 FD (Mnx): agent alone in plasma of 12 healthy individuals, final conc. ADP 5 μM, antibody 20 μg/ml, FERM domain 2 mM
Procedure: The expressions of CD62P and CD63 are associated with platelet activation. Therefore, these two proteins can be used as indicators to characterize the profile of platelet activation. This experiment was performed in vitro to assess stimulation of platelet activation in the presence of various agents by detecting the expression levels of CD62P and CD63 using CD62P monoclonal antibody and CD63 monoclonal antibody.
Plasma samples were collected from 12 healthy individuals, and cultured at room temperature in the presence of various agents as described in Table 1 below for several minutes (e.g. 5 mins). The culture conditions were selected so that the platelets can be fully activated within about 10 mins. After that, CD62P monoclonal antibody and CD63 monoclonal antibody labeled with fluorescein isothiocyanate (FITC) were used to detect the expressed CD62P and CD63 in the plasma samples, and the fluorescence density (“FD”) of the plasma samples was detected using flow cytometry of Beckman Coulter EPICS-XL. The expression levels of the CD62P and CD63 were represented by the average value of fluorescence density detected.
The agents being tested in this assay are listed in Table 1 below, including ADP which is known as an agent stimulating platelet activation (Group 1), the anti-moesin N-terminal domain antibody (Group 2) and the N-terminal FERM domain of moesin (Group 3) which were both prepared according to Example 1.
The concentration of an agent listed in Table 1 is a final concentration of the agent in the plasma sample. A plasma sample without any of the test agents was tested as a control group. The results are listed in Table 1 below and also illustrated in FIG. 6.

platelets [3] = assay: Inhibition of platelet activation induced by activators: CD62P and CD63 expression by flow cytometry; set-up: key to CD62P FD (Mnx) / CD63 FD (Mnx): mean fluorescence density by flow cytometry; conditions: for effect on platelet activation induced by ADP (in words): activator ADP; for effect on platelet activation induced by the antibody against the N-terminal FERM domain of moesin (in words): activator anti-moesin N-terminal domain antibody; for CD62P FD (Mnx) / CD63 FD (Mnx): inhibitor first, n = 12
Procedure: This experiment is performed to assess the blocking effect of various inhibitors (i.e. test agents) on the platelet activation induced by various different activators.
The plasma samples were collected from 12 healthy individuals, and cultured in the presence of an inhibitor as described in Table 2 below for several minutes (e.g. 5 mins), and thereafter an activator of platelet activation was added therein and the plasma samples were further cultured for another several minutes (e.g. 5 mins). The culture conditions were the same as Example 2. After that, CD62P monoclonal antibody and CD63 monoclonal antibody labeled with FITC were used to detect the expressed CD62P and CD63 in the plasma samples, and the fluorescence density of the plasma samples was detected using flow cytometry of Beckman Coulter EPICS-XL. The expression levels of the CD62P and CD63 were represented by the average value of fluorescence density detected. A control group using 0.01M PBS instead of any inhibitor was also tested.
The peptide RGDS is known as an inhibitor of platelet activation that inhibits platelet's activation by competing with platelet activator combined-1 (PAC-1) to bind to glycoprotein (GP) IIb/IIIa complex on the surface of platelets. The RGDS was prepared according to a conventional peptide synthesis in solid phase and used herein with a concentration of 10 mg/ml in 0.01 M PBS. The moesin fragments and anti-moesin antibodies used in this experiment were prepared according to Example 1. As used in this experiment, the anti-moesin N-terminal domain antibody has a concentration of 20 μg/ml in 0.01M PBS, the N-terminal FERM domain has a concentration of 2 mM in 0.01M PBS, and the anti-moesin C-terminal domain has a concentration of 20 μg/ml in 0.01M PBS. The ADP used herein has a concentration of 5 μM in 0.01M PBS. The results are listed in Table 2 below and also illustrated in FIG. 7.

[4] = activator ADP (5 μM), inhibitor at final concentration of Table 3, n = 6
[5] = activator Anti-moesin N-terminal domain antibody (2 μg/mL), n = 6
[6] = then activator ADP (50 μl, 5 μM)
[7] = then activator Anti-moesin N-terminal domain (50 μl, 20 μg/ml)

Row | Molecule | PAR (%) of PRP with the activator alone (platelets [1]; PRP positive control, no inhibitor, ADP 5 μM or antibody 2 μg/mL, n = 6) | CD62P FD (Mnx) (platelets [2]) | CD63 FD (Mnx) (platelets [2]) | PAR (%) platelet aggregation rate (platelets [1]; [4]) | PAIR platelet aggregation inhibition rate (platelets [1]; [5]) | PAR (%) platelet aggregation rate (platelets [1]; [5]) | inhibition of platelet aggregation induced by the antibody against the N-terminal FERM domain of moesin (in words) (platelets [1]; activator anti-moesin N-terminal domain antibody) | effect on platelet activation induced by ADP (in words) (platelets [3]) | effect on platelet activation induced by the antibody against the N-terminal FERM domain of moesin (in words) (platelets [3]) | CD62P FD (Mnx) (platelets [3]; [6]) | CD63 FD (Mnx) (platelets [3]; [6]) | CD62P FD (Mnx) (platelets [3]; [7]) | CD63 FD (Mnx) (platelets [3]; [7]) | inhibition of platelet aggregation induced by ADP (in words) (platelets [1]; activator ADP) | PAIR platelet aggregation inhibition rate (platelets [1]; [4]) | PAIR platelet aggregation inhibition rate (platelets [1]; activator Anti-moesin N-terminal domain antibody (2 μg/mL), n = 6, listed as N-terminal domain) | stimulation of platelet activation (in words) (platelets [2]; agent alone, CD62P and CD63 expression vs control group)
1 | Nc1ncnc2c1ncn2[C@@H]1O[C@H](COP(=O)(O)OP(=O)(O)O)[C@@H](O)[C@H]1O [ADP, reference compound] | 45.62% | 12.88 | 11.31 | – | – | – | – | – | – | – | – | – | – | – | – | – | –
2 | RGDS [solid-phase synthesis, reference compound] | – | – | – | 11.12% | 9.77% | 55.55% | much less inhibiting effect | can substantially inhibit | no blocking effect | 7.04 | 5.61 | 17.98 | 20.13 | – | – | – | –
3 | B1 | – | 2.99 | 1.55 | 27.55% | approximately 90% | 6.03% | – | no significant effect | can significantly block | 11.38 | 7.23 | 5.79 | 6.30 | much less | 39.61% | 90.21% | does not stimulate platelet activation
